# Measurements from patent US20200399394A1.
# Assays:
# [1] = biological target: human CD39 (ectonucleoside triphosphate diphosphohydrolase 1) (UniProt P49961); assay: MSD equilibrium; Fab
# [2] = biological target: human CD39 (ectonucleoside triphosphate diphosphohydrolase 1) (UniProt P49961); assay: ForteBio (BLI); IgG, monovalent
substance,measurement,setting,value
SRF399-C,Kd,[1],0.053 nM
same,Kd,[2],2.94 nM
